In patent US20240016902A1:
Each block holds one substance with its values, some of them ahead of it.

Legend:
[1] = target: POTEE (UniProt Q6S8J3); assay: Flag-IP from HepG2 cell lysate, mass spectrometry of eluate
[2] = target: TUBB (UniProt P07437); assay: as above
[3] = target: SPTBN1 (UniProt Q01082); assay: as above
[4] = target: TUBB4B (UniProt P68371); assay: as above
[5] = target: WDR77 (UniProt Q9BQA1); assay: as above
[6] = target: HSPA8 (UniProt P11142); assay: as above
[7] = target: PRMT5 (UniProt O14744); assay: as above
PRMT5, sequence (O14744 2-637 limits assumed): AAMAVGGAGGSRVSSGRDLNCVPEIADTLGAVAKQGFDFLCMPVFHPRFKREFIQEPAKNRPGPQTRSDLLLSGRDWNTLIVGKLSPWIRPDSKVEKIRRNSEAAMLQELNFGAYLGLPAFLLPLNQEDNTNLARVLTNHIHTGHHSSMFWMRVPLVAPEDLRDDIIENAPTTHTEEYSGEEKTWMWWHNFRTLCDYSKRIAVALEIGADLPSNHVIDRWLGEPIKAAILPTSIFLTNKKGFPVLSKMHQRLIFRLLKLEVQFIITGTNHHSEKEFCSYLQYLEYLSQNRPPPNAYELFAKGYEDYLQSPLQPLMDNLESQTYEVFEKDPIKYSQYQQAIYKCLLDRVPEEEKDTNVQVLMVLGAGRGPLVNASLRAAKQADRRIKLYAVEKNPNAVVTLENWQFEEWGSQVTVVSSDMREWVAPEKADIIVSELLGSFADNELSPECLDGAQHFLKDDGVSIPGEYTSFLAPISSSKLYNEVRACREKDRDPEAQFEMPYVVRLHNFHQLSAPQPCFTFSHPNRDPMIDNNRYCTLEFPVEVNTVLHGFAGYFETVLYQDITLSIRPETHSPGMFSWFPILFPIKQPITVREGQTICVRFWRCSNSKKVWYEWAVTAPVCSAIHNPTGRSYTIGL

[8] = target: FLNA (UniProt P21333); assay: as above
FLNA, sequence (P21333 2-2647 limits assumed): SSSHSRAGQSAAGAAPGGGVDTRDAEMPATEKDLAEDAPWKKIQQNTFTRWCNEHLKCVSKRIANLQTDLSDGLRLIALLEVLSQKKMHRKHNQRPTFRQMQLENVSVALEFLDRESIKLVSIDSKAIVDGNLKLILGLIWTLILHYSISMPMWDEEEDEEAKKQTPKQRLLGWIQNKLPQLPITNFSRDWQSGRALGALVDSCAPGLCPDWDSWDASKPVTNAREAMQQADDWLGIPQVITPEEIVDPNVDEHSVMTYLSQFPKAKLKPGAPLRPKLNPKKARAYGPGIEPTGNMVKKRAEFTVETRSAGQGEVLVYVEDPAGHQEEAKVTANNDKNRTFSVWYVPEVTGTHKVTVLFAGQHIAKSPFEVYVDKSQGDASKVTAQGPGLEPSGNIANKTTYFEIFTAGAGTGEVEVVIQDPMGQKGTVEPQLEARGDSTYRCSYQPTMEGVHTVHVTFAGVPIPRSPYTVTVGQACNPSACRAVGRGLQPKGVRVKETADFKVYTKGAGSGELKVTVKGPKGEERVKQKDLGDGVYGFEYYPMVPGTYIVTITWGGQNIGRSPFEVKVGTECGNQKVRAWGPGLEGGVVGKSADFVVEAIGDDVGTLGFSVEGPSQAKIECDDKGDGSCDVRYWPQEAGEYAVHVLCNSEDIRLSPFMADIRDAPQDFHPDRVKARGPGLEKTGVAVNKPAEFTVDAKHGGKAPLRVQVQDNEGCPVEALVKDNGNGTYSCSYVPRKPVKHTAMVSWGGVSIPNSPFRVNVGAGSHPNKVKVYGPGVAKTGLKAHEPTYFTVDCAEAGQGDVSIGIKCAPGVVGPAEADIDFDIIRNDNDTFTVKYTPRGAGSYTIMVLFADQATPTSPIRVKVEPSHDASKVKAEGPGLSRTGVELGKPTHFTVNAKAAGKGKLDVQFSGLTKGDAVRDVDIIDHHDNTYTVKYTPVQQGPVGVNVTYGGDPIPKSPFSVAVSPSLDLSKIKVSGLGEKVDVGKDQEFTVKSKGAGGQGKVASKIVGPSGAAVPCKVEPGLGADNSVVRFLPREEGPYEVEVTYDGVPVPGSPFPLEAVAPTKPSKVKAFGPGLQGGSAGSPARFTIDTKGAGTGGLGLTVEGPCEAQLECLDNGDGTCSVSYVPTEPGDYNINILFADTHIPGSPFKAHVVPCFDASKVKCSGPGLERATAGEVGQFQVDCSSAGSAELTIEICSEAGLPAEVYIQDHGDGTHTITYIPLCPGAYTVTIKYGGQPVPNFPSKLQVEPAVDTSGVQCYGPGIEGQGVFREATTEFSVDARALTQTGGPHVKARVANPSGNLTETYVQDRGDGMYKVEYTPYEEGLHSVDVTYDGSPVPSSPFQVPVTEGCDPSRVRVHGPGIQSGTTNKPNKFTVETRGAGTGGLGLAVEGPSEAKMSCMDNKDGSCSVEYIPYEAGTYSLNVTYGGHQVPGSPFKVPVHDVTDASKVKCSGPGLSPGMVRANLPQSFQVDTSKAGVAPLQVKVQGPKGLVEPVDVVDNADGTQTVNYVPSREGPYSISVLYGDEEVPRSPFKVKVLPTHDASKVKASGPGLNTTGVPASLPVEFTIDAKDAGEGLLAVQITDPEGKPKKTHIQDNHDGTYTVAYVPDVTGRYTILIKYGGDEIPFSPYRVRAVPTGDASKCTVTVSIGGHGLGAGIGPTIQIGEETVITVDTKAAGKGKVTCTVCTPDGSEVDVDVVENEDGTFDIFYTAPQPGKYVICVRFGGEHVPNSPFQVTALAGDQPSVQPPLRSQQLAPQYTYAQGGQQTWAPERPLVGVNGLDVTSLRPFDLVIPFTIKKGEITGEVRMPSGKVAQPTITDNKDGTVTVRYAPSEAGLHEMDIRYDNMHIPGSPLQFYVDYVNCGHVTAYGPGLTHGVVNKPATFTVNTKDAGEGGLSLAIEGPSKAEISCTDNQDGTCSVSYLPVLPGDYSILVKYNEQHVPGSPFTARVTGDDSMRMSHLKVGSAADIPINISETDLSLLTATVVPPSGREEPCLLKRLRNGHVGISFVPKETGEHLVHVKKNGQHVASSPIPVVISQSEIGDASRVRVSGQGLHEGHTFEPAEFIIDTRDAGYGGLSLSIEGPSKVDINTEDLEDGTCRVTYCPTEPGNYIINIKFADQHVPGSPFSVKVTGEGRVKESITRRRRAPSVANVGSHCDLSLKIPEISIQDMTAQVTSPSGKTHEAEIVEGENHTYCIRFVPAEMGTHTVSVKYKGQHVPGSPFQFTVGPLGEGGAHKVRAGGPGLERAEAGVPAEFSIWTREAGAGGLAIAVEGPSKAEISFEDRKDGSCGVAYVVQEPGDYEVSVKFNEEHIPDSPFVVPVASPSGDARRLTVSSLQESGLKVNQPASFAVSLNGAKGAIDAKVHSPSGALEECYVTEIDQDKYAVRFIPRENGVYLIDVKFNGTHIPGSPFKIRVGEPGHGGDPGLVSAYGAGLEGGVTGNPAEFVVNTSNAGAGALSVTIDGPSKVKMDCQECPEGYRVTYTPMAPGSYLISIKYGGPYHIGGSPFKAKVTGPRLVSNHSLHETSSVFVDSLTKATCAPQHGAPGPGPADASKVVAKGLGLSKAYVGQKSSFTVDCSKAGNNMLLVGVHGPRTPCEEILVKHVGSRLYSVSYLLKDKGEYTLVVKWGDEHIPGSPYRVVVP

[9] = target: SPTAN1 (accession Q13813-3) (UniProt Q13813); assay: as above
[10] = target: TUBA1B (UniProt P68363); assay: as above
[11] = target: TUBA1C (UniProt Q9BQE3); assay: as above
TUBA1C, sequence (Q9BQE3 whole entry): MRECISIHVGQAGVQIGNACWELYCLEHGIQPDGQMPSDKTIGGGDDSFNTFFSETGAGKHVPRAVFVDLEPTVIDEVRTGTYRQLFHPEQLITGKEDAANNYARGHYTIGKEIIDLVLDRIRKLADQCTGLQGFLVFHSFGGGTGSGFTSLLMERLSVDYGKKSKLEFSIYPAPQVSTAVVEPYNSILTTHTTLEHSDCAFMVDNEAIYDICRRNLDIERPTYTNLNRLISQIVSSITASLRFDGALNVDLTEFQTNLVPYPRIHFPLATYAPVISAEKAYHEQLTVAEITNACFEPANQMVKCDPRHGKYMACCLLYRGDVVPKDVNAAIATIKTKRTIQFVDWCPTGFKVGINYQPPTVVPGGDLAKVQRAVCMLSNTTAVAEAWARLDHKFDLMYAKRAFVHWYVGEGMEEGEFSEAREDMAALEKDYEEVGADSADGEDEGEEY

[12] = target: TUBB (UniProt P07437); assay: Flag-IP from HeLa cell lysate, mass spectrometry of eluate
[13] = target: SPTBN1 (UniProt Q01082); assay: as above
[14] = target: SPTAN1 (accession Q13813-2) (UniProt Q13813); assay: as above
[15] = target: KRT1 (UniProt P04264); assay: as above
[16] = target: TUBB4B (UniProt P68371); assay: as above
[17] = target: HSPA8 (UniProt P11142); assay: as above
[18] = target: PRMT5 (UniProt O14744); assay: as above
[19] = target: FLNA (UniProt P21333); assay: as above
[20] = target: HSPA1A (UniProt P0DMV8); assay: as above
[21] = target: EIF4B (UniProt P23588); assay: as above
[22] = target: TUBA1B (UniProt P68363); assay: as above
[23] = target: TUBA1C (UniProt Q9BQE3); assay: as above
[24] = target: SPTAN1 (accession Q13813-2) (UniProt Q13813); assay: Flag-IP from HepG2 cell lysate, mass spectrometry of eluate
[25] = target: DBN1 (UniProt Q16643); assay: as above
[26] = target: VIL1 (UniProt P09327); assay: as above
[27] = target: EIF4B (UniProt P23588); assay: as above
[28] = target: SPTAN1 (accession Q13813) (Homo sapiens (Human)) (UniProt Q13813); assay: Flag-IP from HeLa cell lysate, mass spectrometry of eluate
[29] = target: TUBA1A (UniProt Q71U36); assay: as above
[30] = target: WDR77 (UniProt Q9BQA1); assay: as above

Flag-AtRDR1 (Arabidopsis thaliana RNA-dependent RNA polymerase 1 with Flag tag), sequence (Q9LQV2 whole entry): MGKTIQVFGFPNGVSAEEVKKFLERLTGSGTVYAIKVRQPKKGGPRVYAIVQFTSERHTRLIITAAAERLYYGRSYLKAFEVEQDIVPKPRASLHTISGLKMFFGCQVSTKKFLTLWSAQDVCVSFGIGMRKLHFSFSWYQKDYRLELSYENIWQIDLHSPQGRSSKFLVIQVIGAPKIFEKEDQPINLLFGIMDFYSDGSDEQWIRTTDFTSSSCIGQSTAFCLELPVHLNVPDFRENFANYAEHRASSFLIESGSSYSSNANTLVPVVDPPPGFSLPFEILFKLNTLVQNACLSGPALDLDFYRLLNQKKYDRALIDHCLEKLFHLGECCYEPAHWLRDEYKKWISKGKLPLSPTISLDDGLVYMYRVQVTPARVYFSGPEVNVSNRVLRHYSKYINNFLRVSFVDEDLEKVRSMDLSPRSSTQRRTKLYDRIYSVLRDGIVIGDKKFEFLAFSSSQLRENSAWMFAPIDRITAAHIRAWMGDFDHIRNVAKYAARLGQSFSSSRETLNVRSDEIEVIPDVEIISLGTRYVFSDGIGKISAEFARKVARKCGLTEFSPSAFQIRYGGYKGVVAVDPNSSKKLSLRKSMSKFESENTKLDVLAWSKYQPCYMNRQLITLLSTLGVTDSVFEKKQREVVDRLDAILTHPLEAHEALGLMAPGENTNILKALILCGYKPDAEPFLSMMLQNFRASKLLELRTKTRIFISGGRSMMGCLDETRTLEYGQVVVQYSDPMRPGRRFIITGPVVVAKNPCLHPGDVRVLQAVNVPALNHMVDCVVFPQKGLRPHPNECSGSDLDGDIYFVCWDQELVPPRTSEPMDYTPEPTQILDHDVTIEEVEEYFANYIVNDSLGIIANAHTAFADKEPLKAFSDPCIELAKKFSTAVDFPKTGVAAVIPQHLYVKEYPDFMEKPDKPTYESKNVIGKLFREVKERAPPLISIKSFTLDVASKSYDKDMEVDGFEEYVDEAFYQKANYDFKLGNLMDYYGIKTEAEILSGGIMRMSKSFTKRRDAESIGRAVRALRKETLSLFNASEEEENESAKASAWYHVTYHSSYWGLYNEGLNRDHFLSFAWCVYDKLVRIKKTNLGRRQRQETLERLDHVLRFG

Coverage (%) [1]: 11%
Length of peptide [1]: 9
Coverage (%) [2]: 66%
Length of peptide [2]: 24
Coverage (%) [3]: 48%
Length of peptide [3]: 81
Coverage (%) [4]: 66%
Coverage (%) [5]: 64%
Length of peptide [5]: 15
Coverage (%) [6]: 68%
Length of peptide [6]: 34
Coverage (%) [7]: 61%
Length of peptide [7]: 31
Coverage (%) [8]: 32%
Length of peptide [8]: 50
Coverage (%) [9]: 47%
Length of peptide [9]: 85
Coverage (%) [10]: 62%
Length of peptide [10]: 19
Coverage (%) [11]: 55%
Length of peptide [11]: 17
Coverage (%) [12]: 42%
Length of peptide [12]: 15
Coverage (%) [13]: 10%
Length of peptide [13]: 16
Coverage (%) [14]: 9%
Length of peptide [14]: 16
Coverage (%) [15]: 32%
Length of peptide [15]: 14
Coverage (%) [16]: 38%
Length of peptide [16]: 14
Coverage (%) [17]: 36%
Length of peptide [17]: 17
Coverage (%) [18]: 37%
Length of peptide [18]: 15
Coverage (%) [19]: 12%
Length of peptide [19]: 20
Coverage (%) [20]: 26%
Length of peptide [20]: 13
Coverage (%) [21]: 26%
Length of peptide [21]: 9
Coverage (%) [22]: 40%
Length of peptide [22]: 12
Coverage (%) [23]: 35%
Length of peptide [23]: 11
Substance: Flag-OsRDR1 (rice, Oryza sativa, RNA-dependent RNA polymerase 1 with Flag tag) (from UniProt Q0DXS3 1-740) (enzyme)

Coverage (%) [1]: 9%
Length of peptide [1]: 7
Coverage (%) [3]: 45%
Length of peptide [3]: 72
Coverage (%) [24]: 44%
Length of peptide [24]: 83
Coverage (%) [5]: 66%
Coverage (%) [6]: 56%
Length of peptide [6]: 27
Coverage (%) [7]: 59%
Length of peptide [7]: 31
Coverage (%) [8]: 27%
Length of peptide [8]: 38
Coverage (%) [25]: 36%
Coverage (%) [26]: 46%
Length of peptide [26]: 26
Coverage (%) [27]: 37%
Length of peptide [27]: 17
Coverage (%) [12]: 29%
Length of peptide [12]: 10
Coverage (%) [28]: 16%
Length of peptide [28]: 29
Coverage (%) [29]: 36%
Coverage (%) [13]: 12%
Coverage (%) [16]: 25%
Length of peptide [16]: 9
Coverage (%) [30]: 44%
Length of peptide [30]: 10
Coverage (%) [18]: 29%
Length of peptide [18]: 12
Coverage (%) [19]: 20%
Length of peptide [19]: 36
Coverage (%) [20]: 17%
Length of peptide [20]: 10
Coverage (%) [21]: 33%
Length of peptide [21]: 20
Coverage (%) [23]: 31%
Length of peptide [23]: 10
Substance: Flag-AtRDR1 (Arabidopsis thaliana RNA-dependent RNA polymerase 1 with Flag tag) (from UniProt Q9LQV2 1-1107) (enzyme)
